B1: Calcium uptake protein 1, mitochondrial (Homo sapiens), Q9BPX6 (parent)
chain: MFRLNSLSALAELAVGSRWYHGGSQPIQIRRRLMMVAFLGASAVTASTGLLWKRAHAESPPCVDNLKSDIGDKGKNKDEGDVCNHEKKTADLAPHPEEKKKKRSGFRDRKVMEYENRIRAYSTPDKIFRYFATLKVISEPGEAEVFMTPEDFVRSITPNEKQPEHLGLDQYIIKRFDGKKISQEREKFADEGSIFYTLGECGLISFSDYIFLTTVLSTPQRNFEIAFKMFDLNGDGEVDMEEFEQVQSIIRSQTSMGMRHRDRPTTGNTLKSGLCSALTTYFFGADLKGKLTIKNFLEFQRKLQHDVLKLEFERHDPVDGRITERQFGGMLLAYSGVQSKKLTAMQRQLKKHFKEGKGLTFQEVENFFTFLKNINDVDTALSFYHMAGASLDKVTMQQVARTVAKVELSDHVCDVVFALFDCDGNGELSNKEFVSIMKQRLMRGLEKPKDMGFTRLMQAMWKCAQETAWDFALPKQ
B2: Calcium uptake protein 1, mitochondrial (Homo sapiens), Q9BPX6 (parent)
chain: B1 chain
partner: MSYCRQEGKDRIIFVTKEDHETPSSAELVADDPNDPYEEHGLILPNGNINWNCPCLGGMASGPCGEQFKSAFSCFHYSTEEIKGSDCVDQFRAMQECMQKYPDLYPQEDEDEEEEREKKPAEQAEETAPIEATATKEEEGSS
B3: Mitochondrial intermembrane space import and assembly protein 40 (Homo sapiens), Q8N4Q1 (parent)
chain: B2 partner

The first assay covers variants of B1. To be noted: with mcu_human MCU.
In the case of MFRLNSLSALAELAVGSRWYHGGSQPIQIRRRLMMVAFLGASAVTASTGLLWKRAHAESPPCVDNLKSDIGDKGKNKDEGDVCNHEKKTADLAPHPEEKKKKRSGFRDRKVMEYENRIRAYSTPDKIFRYFATLKVISEPGEAEVFMTPEDFVRSITPNEKQPEHLGLDQYIIKRFDGKKISQEREKFADEGSIFYTLGECGLISFSDYIFLTTVLSTPQRNFEIAFKMFDLNGDGEVDMEEFEQVQSIIRSQTSMGMRHRDRPTTGNTLKSGLCSALTTYFFGADLKGKLTIKNFLEFQRKLQHDVLKLEFERHDPVDGRITERQFGGMLLAYSGVQSKKLTAMQRQLKKHFKEGKGLTFQEVENFFTFLKNINDVDTALSFYHMAGASLDKVTMQQVARTVAKVELSDHVCDVVFALFDCDGNGELSNKEFVSIMKQRLMRGLEKPKDMGFTRLMQAMWKSAQETAWDFALPKQ [C463S], the “effect of a mutation on the interaction” value is “with no effect”.

In the next assay the parent is B2. To be noted: with mia40_human CHCHD4, Q8N4Q1.
Regarding MFRLNSLSALAELAVGSRWYHGGSQPIQIRRRLMMVAFLGASAVTASTGLLWKRAHAESPPCVDNLKSDIGDKGKNKDEGDVCNHEKKTADLAPHPEEKKKKRSGFRDRKVMEYENRIRAYSTPDKIFRYFATLKVISEPGEAEVFMTPEDFVRSITPNEKQPEHLGLDQYIIKRFDGKKISQEREKFADEGSIFYTLGECGLISFSDYIFLTTVLSTPQRNFEIAFKMFDLNGDGEVDMEEFEQVQSIIRSQTSMGMRHRDRPTTGNTLKSGLCSALTTYFFGADLKGKLTIKNFLEFQRKLQHDVLKLEFERHDPVDGRITERQFGGMLLAYSGVQSKKLTAMQRQLKKHFKEGKGLTFQEVENFFTFLKNINDVDTALSFYHMAGASLDKVTMQQVARTVAKVELSDHVCDVVFALFDCDGNGELSNKEFVSIMKQRLMRGLEKPKDMGFTRLMQAMWKAAQETAWDFALPKQ [C463A], the “effect of a mutation on the interaction” value was “disrupting interaction strength”.

In the next assay the parent is B3. To be noted: with micu1_human MICU1, Q9BPX6.
Regarding MSYCRQEGKDRIIFVTKEDHETPSSAELVADDPNDPYEEHGLILPNGNINWNSPCLGGMASGPCGEQFKSAFSCFHYSTEEIKGSDCVDQFRAMQECMQKYPDLYPQEDEDEEEEREKKPAEQAEETAPIEATATKEEEGSS, the “effect of a mutation on the interaction” value is “with no effect”. For the variant MSYSRQEGKDRIIFVTKEDHETPSSAELVADDPNDPYEEHGLILPNGNINWNSPSLGGMASGPCGEQFKSAFSCFHYSTEEIKGSDCVDQFRAMQECMQKYPDLYPQEDEDEEEEREKKPAEQAEETAPIEATATKEEEGSS, the “effect of a mutation on the interaction” value is recorded as “disrupting interaction strength”. Consider MSYCRQEGKDRIIFVTKEDHETPSSAELVADDPNDPYEEHGLILPNGNINWNCPSLGGMASGPCGEQFKSAFSCFHYSTEEIKGSDCVDQFRAMQECMQKYPDLYPQEDEDEEEEREKKPAEQAEETAPIEATATKEEEGSS, for which the “effect of a mutation on the interaction” value is recorded as “disrupting interaction strength”.

Values taken from IntAct's records for PubMed 26387864.
